Reference: US20140162945A1 (BEIJING HANMI PHARMACEUTICAL, published 2014)
Bridges are numbered along the chain shown (N, C = ends). Where no end group is shown, it is not given here. [ ]: non-standard residue; d: D form. The star is where a group is joined. Palmitoyl = CCCCCCCCCCCCCCCC(=O)*; Aib = CC(C)(N)C(=O)O

B1: Analog 053-1 (peptide)
peptide: Y[Aib]EGTFTSDYSIYMEKEAVEEFIAWLVKG-NH2
modifications: N-terminus assumed
SMILES: CC[C@H](C)[C@H](NC(=O)[C@H](Cc1ccccc1)NC(=O)[C@H](CCC(=O)O)NC(=O)[C@H](CCC(=O)O)NC(=O)[C@@H](NC(=O)[C@H](C)NC(=O)[C@H](CCC(=O)O)NC(=O)[C@H](CCCCN)NC(=O)[C@H](CCC(=O)O)NC(=O)[C@H](CCSC)NC(=O)[C@H](Cc1ccc(O)cc1)NC(=O)[C@@H](NC(=O)[C@H](CO)NC(=O)[C@H](Cc1ccc(O)cc1)NC(=O)[C@H](CC(=O)O)NC(=O)[C@H](CO)NC(=O)[C@@H](NC(=O)[C@H](Cc1ccccc1)NC(=O)[C@@H](NC(=O)CNC(=O)[C@H](CCC(=O)O)NC(=O)C(C)(C)NC(=O)[C@@H](N)Cc1ccc(O)cc1)[C@@H](C)O)[C@@H](C)O)[C@@H](C)CC)C(C)C)C(=O)N[C@@H](C)C(=O)N[C@@H](Cc1c[nH]c2ccccc12)C(=O)N[C@@H](CC(C)C)C(=O)N[C@H](C(=O)N[C@@H](CCCCN)C(=O)NCC(N)=O)C(C)C
B2: Analog 052-2 (peptide)
peptide: Y[Aib]EGTFTSDYSEYMEKEAVREFIAWLVKG-NH2
modifications: lactam 12-16; N-terminus assumed
SMILES: CC[C@H](C)[C@H](NC(=O)[C@H](Cc1ccccc1)NC(=O)[C@H](CCC(=O)O)NC(=O)[C@H](CCCNC(=N)N)NC(=O)[C@@H](NC(=O)[C@H](C)NC(=O)[C@H](CCC(=O)O)NC(=O)[C@@H]1CCCCNC(=O)CC[C@H](NC(=O)[C@H](CO)NC(=O)[C@H](Cc2ccc(O)cc2)NC(=O)[C@H](CC(=O)O)NC(=O)[C@H](CO)NC(=O)[C@@H](NC(=O)[C@H](Cc2ccccc2)NC(=O)[C@@H](NC(=O)CNC(=O)[C@H](CCC(=O)O)NC(=O)C(C)(C)NC(=O)[C@@H](N)Cc2ccc(O)cc2)[C@@H](C)O)[C@@H](C)O)C(=O)N[C@@H](Cc2ccc(O)cc2)C(=O)N[C@@H](CCSC)C(=O)N[C@@H](CCC(=O)O)C(=O)N1)C(C)C)C(=O)N[C@@H](C)C(=O)N[C@@H](Cc1c[nH]c2ccccc12)C(=O)N[C@@H](CC(C)C)C(=O)N[C@H](C(=O)N[C@@H](CCCCN)C(=O)NCC(N)=O)C(C)C
B3: Analog 052-1 (peptide)
peptide: Y[Aib]EGTFTSDYSEYMEKEAVREFIAWLVKG-NH2
modifications: N-terminus assumed
SMILES: CC[C@H](C)[C@H](NC(=O)[C@H](Cc1ccccc1)NC(=O)[C@H](CCC(=O)O)NC(=O)[C@H](CCCNC(=N)N)NC(=O)[C@@H](NC(=O)[C@H](C)NC(=O)[C@H](CCC(=O)O)NC(=O)[C@H](CCCCN)NC(=O)[C@H](CCC(=O)O)NC(=O)[C@H](CCSC)NC(=O)[C@H](Cc1ccc(O)cc1)NC(=O)[C@H](CCC(=O)O)NC(=O)[C@H](CO)NC(=O)[C@H](Cc1ccc(O)cc1)NC(=O)[C@H](CC(=O)O)NC(=O)[C@H](CO)NC(=O)[C@@H](NC(=O)[C@H](Cc1ccccc1)NC(=O)[C@@H](NC(=O)CNC(=O)[C@H](CCC(=O)O)NC(=O)C(C)(C)NC(=O)[C@@H](N)Cc1ccc(O)cc1)[C@@H](C)O)[C@@H](C)O)C(C)C)C(=O)N[C@@H](C)C(=O)N[C@@H](Cc1c[nH]c2ccccc12)C(=O)N[C@@H](CC(C)C)C(=O)N[C@H](C(=O)N[C@@H](CCCCN)C(=O)NCC(N)=O)C(C)C

How the values were obtained:
human GLP-1 receptor = human GLP-1 receptor (human, UniProt P43220 24-463); assay: cell-based or functional assay
human GIP receptor = molecular target: T1, human GIP receptor (human, UniProt P48546 22-466); assay: cell-based or functional assay
T1 sequence (looked up): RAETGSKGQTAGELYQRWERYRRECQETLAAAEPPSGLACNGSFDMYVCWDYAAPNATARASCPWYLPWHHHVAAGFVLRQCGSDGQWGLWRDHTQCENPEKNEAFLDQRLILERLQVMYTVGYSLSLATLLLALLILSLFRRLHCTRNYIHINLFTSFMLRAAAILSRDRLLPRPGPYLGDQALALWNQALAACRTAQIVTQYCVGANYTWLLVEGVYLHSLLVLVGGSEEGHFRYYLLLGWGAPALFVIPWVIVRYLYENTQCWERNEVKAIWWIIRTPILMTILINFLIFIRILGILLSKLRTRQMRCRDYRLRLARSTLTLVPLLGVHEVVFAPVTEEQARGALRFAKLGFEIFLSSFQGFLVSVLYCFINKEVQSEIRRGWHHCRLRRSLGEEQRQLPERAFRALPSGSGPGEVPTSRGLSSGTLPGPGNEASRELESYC

human GLP-1 receptor, sequence (P43220 24-463): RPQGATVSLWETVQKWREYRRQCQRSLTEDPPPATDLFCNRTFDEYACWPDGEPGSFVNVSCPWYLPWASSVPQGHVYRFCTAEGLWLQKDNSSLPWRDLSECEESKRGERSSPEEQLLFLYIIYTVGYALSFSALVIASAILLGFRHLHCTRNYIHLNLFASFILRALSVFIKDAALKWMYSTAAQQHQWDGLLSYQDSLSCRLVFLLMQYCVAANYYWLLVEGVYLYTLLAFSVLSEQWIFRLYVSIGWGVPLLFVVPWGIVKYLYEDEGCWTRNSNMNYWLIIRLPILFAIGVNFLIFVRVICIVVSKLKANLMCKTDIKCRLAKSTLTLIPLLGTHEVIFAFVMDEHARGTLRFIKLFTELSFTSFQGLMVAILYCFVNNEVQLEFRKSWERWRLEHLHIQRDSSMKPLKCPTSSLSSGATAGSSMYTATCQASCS

| Binder | EC50, GLP-1 Receptor cAMP induction (human GLP-1 receptor) [nM] | EC50, GIP Receptor cAMP induction (human GIP receptor) [nM] | Relative Potency, GIP Receptor (human GIP receptor) [%] | Relative Potency, GLP-1 Receptor (human GLP-1 receptor) [%] |
| --- | --- | --- | --- | --- |
| Y[Aib]EGTFTSDYSIYMEKEAVREFIAWLVK(Palmitoyl)G-NH2 [Analog 046] | 6.52 | – | – | – |
| B1 | 12.7 | 0.5 | 34 | – |
| B2 | 0.824 | 0.064 | 147 | 133 |
| B3 | 2.5 | 0.57 | 36.8 | – |
